Measured values reported in the nanobody polyreactivity screen of Harvey et al. (2022).

Test: yeast display, Sf9 membrane polyspecificity reagent, FACS + sequencing; frameworks hold sequencing errors
Method in brief: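 A synthetic nanobody library was expressed on Saccharomyces cerevisiae BJ5465 by galactose induction for 36–48 hours. The library was stained for 1 hour at 4 °C with 10% biotinylated, detergent-solubilized Sf9 membrane reagent and enriched with streptavidin microbeads before FACS. Low and high (top ~1%) gates were set on anti-HA fluorescence for expression and streptavidin fluorescence for reagent binding, and each polyreactivity label reflects the gate of origin.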

Sequence | polyreactivity (PSR sort gate)
QVQLVESGGGLVQAGGSLRLSCAASGFIFATYAMGWYRQAPGKDRELVAAISRSGGSTYYADSVKGRFTISRDTAKNTVYSQMNCLKPEDTAVYYCAADSDPAPPDYDYWGQGTQVTVSS | high polyreactivity
QVQLVESGGGLVQAGGSLRLSCAASGFIFATYDMGWYRQAPGKERELVAAIDSDGSTNYADSVKGRYTISRDNAKNTVYLQMNSLKPEDTEVYYCAADRFQWGFWWLEYWGQGTQVTVSS | high polyreactivity
QVQLVESGGGLVQAGGSLRLSCAASGFIFATYVMGWYRQAPGKERELVAAISWSGSSTFYADSVKGRFTISRDNAKNTVYLQMNSLKPEDTAVYYCAALGDYVGNDYWGQGTQVTVSS | high polyreactivity
QVQLVESGGGLVQAGGSLRLSCAASGFIFAYNAMGWYRQAPGKERELVAAISIDTSTYYADSVKGRFTISRDNAKNTVYLQMNSLKPEDTAVYYCAADHVPFRLTELYYWGQGTQVTVSS | low polyreactivity
QVQLVESGGGLVQAGGSLRLSCAASGFIFAYYAMGWYRQAPGKERELVAAISSSGGRTYYADSVKGRFTISRDNAKNTVYLQMNSLQPEDTAVYYCAATLSYYVGVRYDYWGQGTQVTVSS | high polyreactivity
QVQLVESGGGLVQAGGSLRLSCAASGFIFAYYAMGWYRQAPGKERELVAAITIDGSTNYADSVKGRFTISRDNAKNTVYVQMNSLKPEDSAVYYCAAAEHPPVWYGYWGQGTQVTVSS | low polyreactivity
QVQLVESGGGLVQAGGSLRLSCAASGFIFAYYAMGWYRQAPGKERELVAGNSGDGSTNYADSVKGRFTISRDNAKNTVYLQMNSLKPEDTAVYYCAAATGVGLEYDYWGQGTQVTVSS | low polyreactivity
QVQLVESGGGLVQAGGSLRLSCAASGFIFAYYAMGWYRQAPGKERELVARITRGGRTYYADSVKGRFTISRDNAKNTVYLQMNSLKPEDTAVYYCATTGSSYFHSFEYDYWGQGTQVTVSS | low polyreactivity
QVQLVESGGGLVQAGGSLRLSCAASGFIFAYYVMGWYRQAPGKERELVAAISRGGGSTYYADSVKGRFTISRDNAKNTVYLQMNSLKPEDTAVYYCATYSHALRYDYWGQGTQVTVSS | high polyreactivity
QVQLVESGGGLVQAGGSLRLSCAASGFIFDAYAMGWYRQAPGKERELVAAISSRGGSTYYADSVKGRFTISRDNAKNTVYLQMNSLKPEDTAVYYCAAPWYQGLDYWGQGTQVTVSS | high polyreactivity
QVQLVESGGGLVQAGGSLRLSCAASGFIFDDNAMGWNRQAHGKERELVAAITSGGGSTYYADSVKGRFTISRDNAKNTVYLQLNSLKPEDTAVYYCNAVPSQHDEFDYWGQGTQVSVSS | low polyreactivity
QVQLVESGGGLVQAGGSLRLSCAASGFIFDFYTIGWYRQAPGKEWELVAAITNGGSTYYADSVKGRFTISRVNAKNTVYLQMNSLKPEDTAVYYCAAYYRSRHHGYDSWGQGTQVTVSS | low polyreactivity
QVQLVESGGGLVQAGGSLRLSCAASGFIFDGYAMGWYRQAPGKERELVAAIDSGGDRTYYADSVKGRFTISRDNAMNTVYLQMNSLKPEDTAVYYCAADSSDPTGYDYWGQGTQVTVSS | low polyreactivity
QVQLVESGGGLVQAGGSLRLSCAASGFIFDGYTMGRYRQAPGKERELVAAISRSGGRTYYADSVKGRFRISRDNAKNTVYLQMNSLKPEDTAVYYCAVRYRLYSQTVASDYGYWGQGTQVTVSS | high polyreactivity
QVQLVESGGGLVQAGGSLRLSCAASGFIFDGYTMGWYRQAPGKERELVAAISRSGGRTYYADSVKGRFTISRDNAKNTVYLQMNSLKPEDTAVYYCAVRYRQYSQTVASDYGYWGQGTQVTLSS | high polyreactivity
QVQLVESGGGLVQAGGSLRLSCAASGFIFDIYAMGWYRQAPGKERELVAAITWNSGSTHYADSVKGRITISRDNAKNTVYLQMNSLKPEDTAVYYCAADEVTYAYYPYDYWGQGTQVTVSS | low polyreactivity
QVQLVESGGGLVQAGGSLRLSCAASGFIFDLYAMGWSRQAPGKERELVAVISFDGGSTYYADSVKGRFTISRDNAKNTVYLQMNSLKPEDTAVYYCNTYAGLVSPSDLYDYWGQGTQVTVSS | low polyreactivity
QVQLVESGGGLVQAGGSLRLSCAASGFIFDNNAMGWYRQAPGKEREFVAAISGSGGSTYYADSVKGRFTISRDNAKNTVYLQMNSLKPEDTAVYYCAAPIPDYTYIYPAYDDYWGQGTQVTVSS | low polyreactivity
QVQLVESGGGLVQAGGSLRLSCAASGFIFDPYAMGWYRQAPGTERELVASINTRGDRTSYADSVKGRFTISRDNAKNTVYLQMNSLKPEDTAVYYCNADAVDQVGPDDDYWGQGTQVTVSS | low polyreactivity
QVQLVESGGGLVQAGGSLRLSCAASGFIFDQYAMGWYRQAPGKERELVATINWSGGRTYYADSVKGRFTISRDNAKNTVYLQMNSLKPEDTAVYYCAADTYRTKLHSFRTGSGYDYWGQGTQVTVSS | low polyreactivity
QVQLVESGGGLVQAGGSLRLSCAASGFIFDRNAMGWYRQAPGKERELVAAISVSGGNTYYADSVKGRFTISRDNAKNTVYLQMNSLKPEDTAVYYCAASRYHSTRGDYWGQGTQVTVSS | high polyreactivity

Sequence | polyreactivity (PSR sort gate)
QVQLVESGGGLVQAGGSLRLSCAASGFIFDSYAMGWYRQAPGKERELVAAISWSGGRTYYADSVKGRFTISRDNAKNTVFLQMNSLKPEDSAVYYCAADTWFGMDYWGQGTEVTVSS | high polyreactivity
QVQLVESGGGLVQAGGSLRLSCAASGFIFDSYAMGWYRQAPGKERELVAAISYSAGSTSYADSVKGRFTISRDNAKNTVYLQMNSLKPEDTAVYYCNARYYPLYSNSYYSWGQGTQVTVSS | low polyreactivity
QVQLVESGGGLVQAGGSLRLSCAASGFIFDSYAMGWYRQAPGKESELVAAINWNGGRTYYADSVRGRFTISRDNAKNTVYLQMNSLKPEDTAVYYCNAPGIHLGYYRFGYWGQGTQVTVSS | high polyreactivity
QVQLVESGGGLVQAGGSLRLSCAASGFIFDSYVMGWYRQAPGKERELVAAISRRNSSTYYADSVKGRFTNSRDNAKNTVYLQMNSLKPEDTAVYYCAAKYLRAYGYWGQGTQVTVSS | high polyreactivity
QVQLVESGGGLVQAGGSLRLSCAASGFIFDTYAMGWYRQAPGKERELVATINDRGDSTSYADSVKGRFTISRDNAKNTVYLQMNSLKPEDTAVYYCARTWGLRYRWSYGRSRYNYWGQGTQVTVSS | low polyreactivity
QVQLVESGGGLVQAGGSLRLSCAASGFIFDVYAMGWYRQAPGKERELVAAISSSGGRTYYADSVKGRFTISRDNAKNTVYLQMNSLKPEDSAVYYCAAKTHSRTKVYTADYWGQGTQVTVSS | high polyreactivity
QVQLVESGGGLVQAGGSLRLSCAASGFIFDVYAMGWYRQAPGNERELVATISSGDSTYYADSVKGRFTISRDNAKNTVYLQMNSLKPEDTAVYYCNTTEHKYVSSFEYGYWGQGTQVTVSS | low polyreactivity
QVQLVESGGGLVQAGGSLRLSCAASGFIFDYYAMGWYRQAPGKERELVAVINQSGTSTYYADSVKGRFTISRDNAKNTVYLQMNSLKPEDTAVYYCSVDYGTPVYWDEMYYWGQGTQVTVSS | low polyreactivity
QVQLVESGGGLVQAGGSLRLSCAASGFIFDYYMGWYRQAPGKERELVARISYTGGSTYYADSVKGRFTISRDNAKNTVYLQMNSLNPEDTAVYYCATRGAEAERFASYDFDYWGQGTQVTVSS | low polyreactivity
QVQLVESGGGLVQAGGSLRLSCAASGFIFEDYAMGWYRQAPGKERELVAAIRSNDDSTYYADSVKGRFTISRDNSKNTVYLHMNSLKPEDTAVYYCNKGLRRWSTRSHYYYWGQGTQVTVSS | high polyreactivity
QVQLVESGGGLVQAGGSLRLSCAASGFIFEDYAMGWYRQAPGKERELVAAITWRGGRTYYADSVKGRFTISRDNAKNTVYLQMNSLKPEDTAVYYCRPQVYSYASRYGYWGQGTQVTVLS | low polyreactivity
QVQLVESGGGLVQAGGSLRLSCAASGFIFEHYAMGWYRQAPGKEREMVARISWRGGSTYYADSVKGRFTISRDNAKNTVYLQMNSLKPEDTAVYYCNAQEVVYFGYYPSDYWGQGTQVTVSS | low polyreactivity
QVQLVESGGGLVQAGGSLRLSCAASGFIFETNAMGWYRQAPGNERELVAAISSRGGSTYYADSVKGRFTISRDNAKNTVYLQMNSLKPEDTAVYYCAAKLVVSYGQEYDYWGQGTQVTVSS | low polyreactivity
QVQLVESGGGLVQAGGSLRLSCAASGFIFEYYAMGGYRQAPGKERELVAAISGGGRTYYADSVKGRFTISRDNAKNTVYLQMNSLKPEDTAVYYCAAGYAYRGYWVNRITRDGYWGQGTQVTVSS | high polyreactivity
QVQLVESGGGLVQAGGSLRLSCAASGFIFEYYAMGWYRQAPGKERELVAAISSGGGRTYYADSVKGRFTISRDNAKNTVYLQMNSLKPEDTAVYYCAAGFYVDYQLYEYWGQGTQVTVSS | high polyreactivity
QVQLVESGGGLVQAGGSLRLSCAASGFIFEYYAMGWYRQAPGKERELVAAISSSGGSTYYADSVKGRFTISRDNAKITVYLQINSLKPEDTAVYYCAKDYAPSAKKLHYWGQGTQVTVSS | low polyreactivity
QVQLVESGGGLVQAGGSLRLSCAASGFIFFNYAMGWYRQAPGKERELVAVIDRSGGTTYYADSVKGRFTISRDNAKNTVYLQMNSLKPEDTAVYYCNADDFTYPSGWGFIYDYWGQGTQVTVSS | low polyreactivity
QVQLVESGGGLVQAGGSLRLSCAASGFIFFPYTMGWYRQAPGKERELVAAITNGGSTSYADSVKGRFTISRDNAKNTVYLQMNSLKPEDTAVYYCAADLGRNLLHTYYYWGQGTQVTVSS | low polyreactivity
QVQLVESGGGLVQAGGSLRLSCAASGFIFFQYAMGWYRQAPGKERELVAAISSGGNTYYADSVKGRFTISRDNAKNTVYLQMNSLKPEDTAVYYCAAYYPLRKGYGYWGQGTQVTVSS | high polyreactivity
QVQLVESGGGLVQAGGSLRLSCAASGFIFFRNAMGWYRQAPGKERELVAAISGSGGSTYYADSVKGRFTISRDNAKNTVYLQLNSLKPEDTAVYYCAAAGPFNYDYWGQGTHVTVSS | high polyreactivity
